Source: patent US20180044434A1 (PUBLIC UNIVERSITY CORPORATION YOKOHAMA CITY UNIVERSITY, published 2018)
Where a chain is given by its changes, count along the chain named.

B1: humanized anti-PAD4 antibody derived from H7, VH H4.00 / VL L4.15 (antibody, IgG1, V domains shown)
VH: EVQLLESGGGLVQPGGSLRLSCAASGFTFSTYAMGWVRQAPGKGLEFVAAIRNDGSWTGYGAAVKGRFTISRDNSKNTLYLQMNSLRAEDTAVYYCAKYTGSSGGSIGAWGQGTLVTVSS
VL: SYELTQPPSVSVSPGQTARITCSGGSGRYYYGWYQQKPGQAPVTVIYSSTHRPSGIPERFSGSNSGNTTTLTISGVQAEDEADYYCGTADSSSYVFGGGTKLTVLG
notes: IgG1 kappa; also called H7 H4.00/L4.15
B2: humanized anti-PAD4 antibody derived from H7, VH H4.15 / VL L4.15 (antibody, IgG1, V domains shown)
VH: EVQLLESGGGLVQPGGSLRLSCAASGFTFSTYAMGWVRQAPGKGLEFVSAIRNDGSWTGYGAAVKGRFTISRDNSKNTVYLQMNSLRAEDTAVYYCAKYTGSSGGSIGAWGQGTLVTVSS
VL: B1 VL
notes: IgG1 kappa; also called H7 H4.15/L4.15
B3: humanized anti-PAD4 antibody derived from H7, VH H4.00 / VL L4.06 (antibody, IgG1, V domains shown)
VH: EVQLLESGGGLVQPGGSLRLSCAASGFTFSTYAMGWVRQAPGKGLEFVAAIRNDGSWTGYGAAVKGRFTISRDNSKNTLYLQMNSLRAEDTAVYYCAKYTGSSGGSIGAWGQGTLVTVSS
VL: B1 VL with N64Y
notes: IgG1 kappa; also called H7 H4.00/L4.06
B4: humanized anti-PAD4 antibody derived from H7, VH H4.15 / VL L4.00 (antibody, IgG1, V domains shown)
VH: B2 VH
VL: B1 VL with T44L, N64S, N67T, T69V
notes: IgG1 kappa; also called H7 H4.15/L4.00
B5: humanized anti-PAD4 antibody derived from G8, VH H4.00 / VL L4.17 (antibody, human IgG1, kappa, V domains shown)
VH: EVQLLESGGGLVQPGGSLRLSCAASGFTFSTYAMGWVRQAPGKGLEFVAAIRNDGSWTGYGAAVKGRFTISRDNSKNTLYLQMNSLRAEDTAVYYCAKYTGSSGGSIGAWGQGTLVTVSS
VL: SYELTQPPSVSVSPGQTARITCSGGNRNYYYGWYQQKPGQAPVTVIYANDKRPSGIPERFSGSTSGNTTTLTISGVQAEDEADYYCGTADTGKYVFGGGTKLTVLG
notes: IgG1 kappa; also called G8 H4.00/L4.17
B6: humanized anti-PAD4 antibody derived from H7, VH H4.32 / VL L4.15 (antibody, IgG1, V domains shown)
VH: B2 VH with S49A, F68V
VL: B1 VL
notes: IgG1 kappa; also called H7 H4.32/L4.15
B7: humanized anti-PAD4 antibody derived from H7, VH H4.15 / VL L4.17 (antibody, IgG1, V domains shown)
VH: B2 VH
VL: B1 VL with N64T
notes: IgG1 kappa; also called H7 H4.15/L4.17
B8: humanized anti-PAD4 antibody derived from H7, VH H4.32 / VL L4.00 (antibody, IgG1, V domains shown)
VH: B2 VH with S49A, F68V
VL: B1 VL with T44L, N64S, N67T, T69V
notes: IgG1 kappa; also called H7 H4.32/L4.00
B9: humanized anti-PAD4 antibody derived from H7, VH H4.15 / VL L4.06 (antibody, IgG1, V domains shown)
VH: B2 VH
VL: B1 VL with N64Y
notes: IgG1 kappa; also called H7 H4.15/L4.06
B10: humanized anti-PAD4 antibody derived from H7, VH H4.32 / VL L4.17 (antibody, IgG1, V domains shown)
VH: B2 VH with S49A, F68V
VL: B1 VL with N64T
notes: IgG1 kappa; also called H7 H4.32/L4.17
B11: humanized anti-PAD4 antibody derived from H7, VH H4.00 / VL L4.17 (antibody, IgG1, V domains shown)
VH: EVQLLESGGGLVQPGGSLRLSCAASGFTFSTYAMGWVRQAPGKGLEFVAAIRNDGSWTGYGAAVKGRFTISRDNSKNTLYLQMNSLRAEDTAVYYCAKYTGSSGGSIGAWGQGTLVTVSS
VL: B1 VL with N64T
notes: IgG1 kappa; also called H7 H4.00/L4.17
B12: humanized anti-PAD4 antibody derived from H7, VH H4.00 / VL L4.00 (antibody, IgG1, V domains shown)
VH: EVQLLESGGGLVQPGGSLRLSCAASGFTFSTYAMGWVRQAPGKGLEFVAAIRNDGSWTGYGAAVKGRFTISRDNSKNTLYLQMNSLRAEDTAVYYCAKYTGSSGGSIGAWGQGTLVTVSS
VL: B1 VL with T44L, N64S, N67T, T69V
notes: IgG1 kappa; also called H7 H4.00/L4.00
B13: humanized anti-PAD4 antibody derived from H7, VH H4.32 / VL L4.06 (antibody, IgG1, V domains shown)
VH: B2 VH with S49A, F68V
VL: B1 VL with N64Y
notes: IgG1 kappa; also called H7 H4.32/L4.06
B14: humanized anti-PAD4 antibody derived from G8, VH H4.00 / VL L4.06 (antibody, human IgG1, kappa, V domains shown)
VH: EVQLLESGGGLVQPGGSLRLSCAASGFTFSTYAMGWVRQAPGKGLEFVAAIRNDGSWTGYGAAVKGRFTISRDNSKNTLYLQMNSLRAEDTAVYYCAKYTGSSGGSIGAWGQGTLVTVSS
VL: B5 VL with T64Y
notes: IgG1 kappa; also called G8 H4.00/L4.06
B15: humanized anti-PAD4 antibody derived from G8, VH H4.15 / VL L4.00 (antibody, human IgG1, kappa, V domains shown)
VH: B2 VH
VL: B5 VL with T44L, T64S, N67T, T69V
notes: IgG1 kappa; also called G8 H4.15/L4.00
B16: humanized anti-PAD4 antibody derived from G8, VH H4.15 / VL L4.29 (antibody, human IgG1, kappa, V domains shown)
VH: B2 VH
VL: B5 VL with T64N, N67S
notes: IgG1 kappa; also called G8 H4.15/L4.29
B17: humanized anti-PAD4 antibody derived from G8, VH H4.15 / VL L4.17 (antibody, human IgG1, kappa, V domains shown)
VH: B2 VH
VL: B5 VL
notes: IgG1 kappa; also called G8 H4.15/L4.17
B18: humanized anti-PAD4 antibody derived from G8, VH H4.15 / VL L4.06 (antibody, human IgG1, kappa, V domains shown)
VH: B2 VH
VL: B5 VL with T64Y
notes: IgG1 kappa; also called G8 H4.15/L4.06
B19: humanized anti-PAD4 antibody derived from G8, VH H4.32 / VL L4.00 (antibody, IgG1, V domains shown)
VH: B2 VH with S49A, F68V
VL: B5 VL with T44L, T64S, N67T, T69V
notes: IgG1 kappa; also called G8 H4.32/L4.00
B20: humanized anti-PAD4 antibody derived from G8, VH H4.32 / VL L4.06 (antibody, IgG1, V domains shown)
VH: B2 VH with S49A, F68V
VL: B5 VL with T64Y
notes: IgG1 kappa; also called G8 H4.32/L4.06
B21: humanized anti-PAD4 antibody derived from G8, VH H4.32 / VL L4.17 (antibody, IgG1, V domains shown)
VH: B2 VH with S49A, F68V
VL: B5 VL
notes: IgG1 kappa; also called G8 H4.32/L4.17

Biological target: T1, full-length recombinant human PAD4 (human, UniProt Q9UM07 1-663)
T1 construct: Full-length recombinant; also called peptidylarginine deiminase 4
Experiment: ELISA, immobilized human PAD4

T1 sequence (Q9UM07 whole entry): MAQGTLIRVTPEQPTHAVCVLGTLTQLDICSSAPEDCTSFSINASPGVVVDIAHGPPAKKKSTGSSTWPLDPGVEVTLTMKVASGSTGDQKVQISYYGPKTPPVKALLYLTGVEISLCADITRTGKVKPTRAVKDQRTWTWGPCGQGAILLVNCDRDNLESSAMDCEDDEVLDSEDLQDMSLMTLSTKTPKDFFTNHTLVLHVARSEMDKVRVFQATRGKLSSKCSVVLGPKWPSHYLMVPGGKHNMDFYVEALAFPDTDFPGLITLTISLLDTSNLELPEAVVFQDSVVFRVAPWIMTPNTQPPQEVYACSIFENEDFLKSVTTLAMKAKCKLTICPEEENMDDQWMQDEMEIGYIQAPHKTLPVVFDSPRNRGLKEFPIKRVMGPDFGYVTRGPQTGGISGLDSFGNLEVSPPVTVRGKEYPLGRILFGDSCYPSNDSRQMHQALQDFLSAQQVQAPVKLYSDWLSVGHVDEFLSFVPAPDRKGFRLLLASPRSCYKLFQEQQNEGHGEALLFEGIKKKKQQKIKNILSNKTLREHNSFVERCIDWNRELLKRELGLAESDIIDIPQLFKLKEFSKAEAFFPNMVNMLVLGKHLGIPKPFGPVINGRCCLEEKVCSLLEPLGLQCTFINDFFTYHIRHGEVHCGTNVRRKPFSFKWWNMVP

Row | O.D. 490/630 at 0.0078125 µg/mL | O.D. 490/630 at 0.015625 µg/mL | O.D. 490/630 at 0.03125 µg/mL | O.D. 490/630 at 0.0625 µg/mL | O.D. 490/630 at 0.125 µg/mL | O.D. 490/630 at 0.25 µg/mL | O.D. 490/630 at 0.5 µg/mL | O.D. 490/630 at 1 µg/mL | Binder
1 | 1.31 | 1.71 | 1.89 | 1.92 | 1.87 | 1.89 | 1.87 | 1.86 | B1
2 | 1.25 | 1.65 | 1.82 | 1.87 | 1.83 | 1.84 | 1.83 | 1.82 | B2
3 | 1.26 | 1.75 | 1.9 | 2 | 1.87 | 1.89 | 1.86 | 1.86 | B3
4 | 0.429 | 0.764 | 1.23 | 1.71 | 1.84 | 1.9 | 1.88 | 1.86 | B4
5 | 1.31 | 1.62 | 1.84 | 1.89 | 1.82 | 1.81 | 1.8 | 1.8 | B5
6 | 1.34 | 1.77 | 1.89 | 1.94 | 1.87 | 1.84 | 1.78 | 1.79 | B6
7 | 1.31 | 1.63 | 1.81 | 1.9 | 1.81 | 1.81 | 1.82 | 1.77 | B7
8 | 0.389 | 0.713 | 1.17 | 1.65 | 1.77 | 1.85 | 1.81 | 1.82 | B8
9 | 1.22 | 1.68 | 1.82 | 1.83 | 1.84 | 1.82 | 1.82 | 1.84 | B9
10 | 1.28 | 1.77 | 1.95 | 1.98 | 1.86 | 1.86 | 1.81 | 1.79 | B10
11 | 1.3 | 1.71 | 1.85 | 1.91 | 1.87 | 1.86 | 1.85 | 1.86 | B11
12 | 0.441 | 0.752 | 1.21 | 1.72 | 1.88 | 1.89 | 1.91 | 1.92 | B12
13 | 1.22 | 1.64 | 1.9 | 1.94 | 1.82 | 1.86 | 1.81 | 1.77 | B13
14 | 1.22 | 1.64 | 1.83 | 1.95 | 1.85 | 1.81 | 1.83 | 1.8 | B14
15 | 0.707 | 1.11 | 1.52 | 1.84 | 1.87 | 1.87 | 1.86 | 1.85 | B15
16 | 1.15 | 1.56 | 1.85 | 1.91 | 1.86 | 1.86 | 1.81 | 1.84 | B16
17 | 1.24 | 1.66 | 1.86 | 1.93 | 1.87 | 1.81 | 1.82 | 1.83 | B17
18 | 1.31 | 1.68 | 1.9 | 1.92 | 1.91 | 1.87 | 1.79 | 1.77 | B18
19 | 0.364 | 0.649 | 1.05 | 1.52 | 1.76 | 1.84 | 1.91 | 1.87 | B19
20 | 1.21 | 1.6 | 1.82 | 1.91 | 1.86 | 1.85 | 1.81 | 1.79 | B20
21 | 1.2 | 1.56 | 1.83 | 1.88 | 1.89 | 1.83 | 1.83 | 1.82 | B21
